Measured values from publication PMC11529724.
Changes are numbered by the printed parent chain. Names may count otherwise. Read-outs that look alike come from different tables or passages of the source.

How the values were obtained:
[1] = molecular target: microtubules assembled from porcine brain tubulin (porcine) (UniProt P02550)
[2] = molecular target: microtubules assembled from porcine brain tubulin (porcine) (UniProt P02550); remark: listed apart in the source
[3] = molecular target: unmodified human microtubules (tubulin from tsA201 cells) (human (endogenous in tsA201)) (UniProt P68363); assay: TIRF microscopy binding assay

Sequence of microtubules assembled from porcine brain tubulin (porcine) (P02550 whole entry, chain 1 of 2): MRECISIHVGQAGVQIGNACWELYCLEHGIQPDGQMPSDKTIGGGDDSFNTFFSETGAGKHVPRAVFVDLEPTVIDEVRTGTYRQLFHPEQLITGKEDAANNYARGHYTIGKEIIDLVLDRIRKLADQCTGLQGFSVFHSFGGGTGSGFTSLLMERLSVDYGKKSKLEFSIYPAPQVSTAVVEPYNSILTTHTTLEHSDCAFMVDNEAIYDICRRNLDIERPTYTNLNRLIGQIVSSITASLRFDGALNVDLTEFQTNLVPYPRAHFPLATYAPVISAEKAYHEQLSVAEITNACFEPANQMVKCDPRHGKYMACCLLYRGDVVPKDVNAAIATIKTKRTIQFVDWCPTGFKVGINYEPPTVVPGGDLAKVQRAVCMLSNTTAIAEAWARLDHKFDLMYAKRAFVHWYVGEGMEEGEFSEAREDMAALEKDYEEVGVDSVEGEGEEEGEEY
Sequence of microtubules assembled from porcine brain tubulin (porcine) (P02554 whole entry, chain 2 of 2, further chain): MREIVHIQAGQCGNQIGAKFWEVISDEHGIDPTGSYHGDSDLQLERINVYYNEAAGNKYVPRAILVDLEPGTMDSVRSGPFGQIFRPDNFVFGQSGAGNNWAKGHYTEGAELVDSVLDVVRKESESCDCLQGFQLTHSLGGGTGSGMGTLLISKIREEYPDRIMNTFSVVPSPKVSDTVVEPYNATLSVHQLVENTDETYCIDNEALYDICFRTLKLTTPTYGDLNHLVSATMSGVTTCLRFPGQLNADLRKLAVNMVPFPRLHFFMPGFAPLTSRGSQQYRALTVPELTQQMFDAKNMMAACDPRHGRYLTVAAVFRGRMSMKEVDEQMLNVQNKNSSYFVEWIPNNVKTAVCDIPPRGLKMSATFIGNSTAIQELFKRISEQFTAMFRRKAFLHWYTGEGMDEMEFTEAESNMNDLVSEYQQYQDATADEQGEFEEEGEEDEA

B1: TTLL6 Y479A (enzyme)
chain: GKKKRKKKRLVINLSNCRYDSVRRAAQQYGLREAGDNDDWTLYWTDYSVSLERVMEMKSYQKINHFPGMSEICRKDLLARNMSRMLKLFPKDFHFFPRTWCLPADWGDLQTYSRTRKNKTYICKPDSGCQGRGIFITRSVKEIKPGEDMICQLYISKPFIIDGFKFDLRVYVLVTSCDPLRVFVYNEGLARFATTSYSHPNLDNLDEICMHLTNYSINKHSSNFVQDAFSGSKRKLSTFNSYMKTHGYDVEQIWRGIEDVIIKTLISAHPVIKHNYHTCFPSHTLNSACFEILGFDILLDRKLKPWLLEVNHSPSFSTDSKLDKEVKDSLLYDALVLINLGNCDKKKVLEEERQRGRFLQQCPNREIRLEEVKGFQAMRLQKTEEYEKKNCGGFRLIYPGLNLEKYDKFFQDNSSLFQNTVASRARELAARQLIQELRQKQEKKVFLKKARK
In the case of B1, the glutamylation activity with taxol-stabilized MTs, normalized to WT [1] is reported as 35 % of WT.

B2: TTLL6 K490 to glutamate (enzyme)
chain: B1 chain with A429Y, K440E
In the case of B2, the glutamylation activity with taxol-stabilized MTs, normalized to WT [1] is reported as < 20 % of WT.

B3: TTLL6 Leu409 to alanine (enzyme)
chain: B1 chain with L359A, A429Y
B3 was tested, and the glutamylation activity with taxol-stabilized MTs, normalized to WT [2] was < 10 % of WT.

B4: TTLL6 Val422 to alanine (enzyme)
chain: B1 chain with V372A, A429Y
For B4, the glutamylation activity with taxol-stabilized MTs, normalized to WT [2] was < 10 % of WT.

B5: TTLL6 F408 to alanine (enzyme)
chain: B1 chain with F358A, A429Y
B5 gave a glutamylation activity with taxol-stabilized MTs, increase against WT [2] of 70 % increase.

B6: TTLL6 F425 to alanine (enzyme)
chain: B1 chain with F375A, A429Y
In the case of B6, the glutamylation activity with taxol-stabilized MTs, increase against WT [2] is reported as 59 % increase.

B7: Atto488-labeled TTLL6 (enzyme)
chain: B1 chain with A429Y
modifications: Atto488 on the N-terminus, through the synthetic peptide NH2-(Atto488)-… ligated with sortase
Work on B7 yielded a Kd [3] of 210 nM.
